“And” between values parts separate entries of the source, which are not always exact repeats. Equal values may be shown once.
How the values were obtained:
[1] = test system: SH-SY5Y neuronal cells; assay: Mitochondrial membrane potential against MPP+ iodide damage, JC-1 assay; assay type: cell-based, human; details: MPP+ iodide 1 mM; for Mitochondrial membrane potential: red/green fluorescence ratio
Procedure: The plated cells were incubated overnight in 5% CO2 incubator at 37° C. After 24 h, cells were treated with concentrations of recombinant lectin protein having SEQ ID NO: 1 ranging from 1 μg/ml-50 μg/ml for 24 h. After 24 h of treatment, cells were exposed to damage (MPP+ iodide 1 mM) for 24 h. […] Untreated cells were included as control. Cells treated with Deprenyl served as positive control. After MPP+ iodide exposure, the protective effect of recombinant lectin protein having SEQ ID NO: 1 on mitochondrial membrane potential was assessed by JC-1 assay as follows; after incubation, the supernatants were discarded and 100 μl of JC1-dye solution (prepared by diluting 1 mM DMSO stock in to 10 μM in 1×PBS) was added to each well. The cells were then incubated with the dye in CO2 incubator at 37° C. for 15 min. After 15 min of incubation, the supernatant was removed, and the cells were washed twice with 1×PBS (phosphate buffer saline). 100 μl of 1×PBS was finally added to each well. Red fluorescence (excitation 550 nm, emission 600 nm) and green fluorescence (excitation 485 nm, emission 535 nm) were measured using Biotek Synergy HT plate reader. The mitochondrial membrane potential (Δψm) was calculated as the ratio of intensity of red fluorescence to intensity of green fluorescence described as follows: • Δψm=Intensity of red fluorescence/Intensity of green fluorescence • The percentage increase/restoration in Mitochondrial Membrane Potential against MPP+ iodide damage was calculated as:
[formula] • Where X=Δψm corresponding to SEQ ID NO: 1+ MPP+ iodide treated cells • R=Δψm corresponding to control cells (MPP+ iodide damage alone)

[2] = test system: Calbindin D; assay: Parkinson biomarker multiplex analysis/ELISA, MPP+ damaged SH-SY5Y; assay type: cell-based, human; details: MPP + Iodide (2 mM)
Procedure: (§1) After overnight incubation as in the previous examples, cells were treated with recombinant lectin protein having SEQ ID NO: 1 at different concentrations ranging from 0.001 μg/ml-1 μg/ml for 24 h for Parkinson disease and 0.01 μg/ml-25 μg/ml for 24 h for Alzheimer's disease. • Parkinson Disease: After 24 h of pre-treatment with recombinant lectin protein having SEQ ID NO: 1, cells were exposed (MPP+) for another 24 h. Cells treated with MPP+Iodide were included as Control. […] The cells treated with Galantamine were included as positive Control.
(§2) The levels of markers were determined by multiplex analysis as: Cell culture supernatants were diluted (1:2) with Calibrator Diluent. 50 μl of standard or sample was added per well. 50 μl of the microparticle cocktail was added to each well of the microplate and covered with a foil plate sealer. The plate was incubated for 2 hours at room temperature on a horizontal orbital microplate shaker. The plate was washed using a magnetic device designed to accommodate a microplate. Washing was done by applying the magnet to the bottom of the microplate, allowing 1 minute before removing the liquid, filling each well with wash buffer (100 μl) and allowing 1 minute before removing the liquid again. 50 μl of diluted Biotin-Antibody Cocktail was added to each well. Covered the plate with a foil plate sealer and incubated for 1 hour at room temperature on the shaker. Repeated the wash step. 50 μl of diluted Streptavidin-PE was added to each well. The plate was securely covered with a foil plate sealer and incubated for 30 minutes at room temperature on the shaker. Repeated the wash step. The microparticles were resuspended by adding 100 μl of Wash Buffer to each well. The plate was incubated for 2 minutes on the shaker and read within 90 minutes using Magpix® multiplex machine. Levels of biomarkers for Parkinson's and Alzheimer's disease were estimated using Magpix® multiplex machine.
(§3) For Parkinson's the percent modulation in each sample was determined as follows:
(§4) [{Concentration of biomarkers(pg/ml) in SEQ ID NO:1+MPP+Iodide treated cells)−Concentration of biomarkers(pg/ml) in Control cells(MPP+Iodide alone treated)}/Concentration of biomarkers(pg/ml) in Control cells(MPP+Iodide alone treated)]*100

[3] = test system: Dopamine; assay: as above; assay type: cell-based, human; details: MPP + Iodide (2 mM)
Procedure: as §1, §2, §3, §4

[4] = test system: ICAM1/CD54; assay: as above; assay type: cell-based, human; details: MPP + Iodide (2 mM)
Procedure: as §1, §2, §3, §4

[5] = test system: Park7/DJ-1; assay: as above; assay type: cell-based, human; details: MPP + Iodide (2 mM)
Procedure: as §1, §2, §3, §4

[6] = test system: S100b; assay: as above; assay type: cell-based, human; details: MPP + Iodide (2 mM)
Procedure: as §1, §2, §3, §4

[7] = test system: Serotonin; assay: as above; assay type: cell-based, human; details: MPP + Iodide (2 mM)
Procedure: as §1, §2, §3, §4

[8] = test system: α-Synuclein; assay: as above; assay type: cell-based, human; details: 0.001 μg/mL to 1 μg/mL, MPP+ iodide
Procedure: as §1, §2, §3, §4

[9] = test system: TNF alpha; assay: Brain biomarker ELISA, scopolamine induced dementia; assay type: in vivo, Mus musculus (Swiss Albino); details: scopolamine 2.5 mg/kg i.p., mice
Procedure: Healthy male Swiss albino mice (n=48) were selected and randomized based on body weight (n=8 per Group) into 6 groups as mentioned in table no-1. The control group G1 was treated intravenously with vehicle daily till the experiment completion. Group G2 was considered as negative control and treated with vehicle. […] Group G4, G5 &G6 animals were treated with the test item recombinant lectin protein having SEQ ID NO: 1 at the dose of 0.5 mg/kg, 0.25 mg/kg and 0.125 mg/kg, respectively. All the test items were given intravenously (i.v) daily at the dose volume of 5 ml/kg for 14 Days. The body weight was recorded daily throughout the experimental period. […] One hour after the last dose of test items (on Day 14) all the animals were injected with scopolamine hydrobromide at the dose of 2.5 mg/kg, i.p., except the normal control group G1. Passive avoidance test was conducted 30 min after scopolamine injection.
After passive avoidance test screening models of memory, the animals were sacrificed humanely. The whole brain was carefully removed from the skull and weighed. Brain was dissected into two portions
10% w/v brain homogenate (100 mg/mL) was prepared by homogenizing it in ice-chilled phosphate buffer. The homogenate was subsequently centrifuged using a refrigerated centrifuge at 3000 rpm for 10 min, and the supernatant was separated and used for the biochemical estimations.
Following biomarkers was estimated using ELISA kit as per manufacturer's instruction. • Brain NGF (Nerve Growth Factor), CUSABIO, Catalog No. CSB-E04684m • Acetylcholinesterase, CUSABIO, Catalog No. CSB-E17521m • TNF alpha, CUSABIO, Catalog No. CSB-E04741m

B1: SEQ ID NO: 1: variant of the S. rolfsii lectin amino acid sequence (reported as Rec-2 in WO2010/095143) (protein)
chain: TYKITVRVYQTNPDAFFHPVEKTVWKYANGGTWTITDDQHVLTMGGSGTSGTLRFHADNGESFTATFGVHNYKRWCDIVTNLAADETGMVINQQYYSQKNREEARERQLSNYQVKNAKGRNFQIVYTEAEGNDLHANLIIG
% Increase in Mitochondrial potential (w.r.t. control) ([1]; 1 μg/mL): 22.7% | Mitochondrial membrane potential ([1]; 1 μg/mL): 2.3 | % Increase in Mitochondrial potential (w.r.t. control) ([1]; 5 μg/mL): 86.6% | Mitochondrial membrane potential ([1]; 5 μg/mL): 3.4 | % Increase in Mitochondrial potential (w.r.t. control) ([1]; 10 μg/mL): 115.9% | Mitochondrial membrane potential ([1]; 10 μg/mL): 4 | % Increase in Mitochondrial potential (w.r.t. control) ([1]; 25 μg/mL): 84.7% | Mitochondrial membrane potential ([1]; 25 μg/mL): 3.4 | % Increase in Mitochondrial potential (w.r.t. control) ([1]; 50 μg/mL): 77.5% | Mitochondrial membrane potential ([1]; 50 μg/mL): 3.3 | % Change of Biomarkers markers (with respect to Control) Calbindin D ([2]; 0.001 μg/mL): 9.7% | % Change of Biomarkers markers (with respect to Control) Calbindin D ([2]; 0.01 μg/mL): 8.2% | % Change of Biomarkers markers (with respect to Control) Calbindin D ([2]; 0.05 μg/mL): 1.7% | % Change of Biomarkers markers (with respect to Control) Calbindin D ([2]; 0.1 μg/mL): 6.6% | % Change of Biomarkers markers (with respect to Control) Calbindin D ([2]; 1 μg/mL): −1.6% | % Change of Biomarkers markers (with respect to Control) Dopamine ([3]; 0.001 μg/mL): 50.6% | % Change of Biomarkers markers (with respect to Control) Dopamine ([3]; 0.01 μg/mL): 82.5% | % Change of Biomarkers markers (with respect to Control) Dopamine ([3]; 0.05 μg/mL): 24.7% | % Change of Biomarkers markers (with respect to Control) Dopamine ([3]; 0.1 μg/mL): 28.9% | % Change of Biomarkers markers (with respect to Control) Dopamine ([3]; 1 μg/mL): 22.9% | % Change of Biomarkers markers (with respect to Control) ICAM1/CD54 ([4]; 0.001 μg/mL): 0% | % Change of Biomarkers markers (with respect to Control) ICAM1/CD54 ([4]; 0.01 μg/mL): −6.2% | % Change of Biomarkers markers (with respect to Control) ICAM1/CD54 ([4]; 0.05 μg/mL): −28.1% | % Change of Biomarkers markers (with respect to Control) ICAM1/CD54 ([4]; 0.1 μg/mL): −36.3% | % Change of Biomarkers markers (with respect to Control) ICAM1/CD54 ([4]; 1 μg/mL): −41.3% | % Change of Biomarkers markers (with respect to Control) Park7/DJ-1 ([5]; 0.001 μg/mL): −2.5% | % Change of Biomarkers markers (with respect to Control) Park7/DJ-1 ([5]; 0.01 μg/mL): −3.6% | % Change of Biomarkers markers (with respect to Control) Park7/DJ-1 ([5]; 0.05 μg/mL): −7.1% | % Change of Biomarkers markers (with respect to Control) Park7/DJ-1 ([5]; 0.1 μg/mL): −10.4% | % Change of Biomarkers markers (with respect to Control) Park7/DJ-1 ([5]; 1 μg/mL): −12.6% | % Change of Biomarkers markers (with respect to Control) S100b ([6]; 0.001 μg/mL): −11% | % Change of Biomarkers markers (with respect to Control) S100b ([6]; 0.01 μg/mL): 9% | % Change of Biomarkers markers (with respect to Control) S100b ([6]; 0.05 μg/mL): −6.7% | % Change of Biomarkers markers (with respect to Control) S100b ([6]; 0.1 μg/mL): −6.5% | % Change of Biomarkers markers (with respect to Control) S100b ([6]; 1 μg/mL): −11.4% | % Change of Biomarkers markers (with respect to Control) Serotonin ([7]; 0.001 μg/mL): 15.4% | % Change of Biomarkers markers (with respect to Control) Serotonin ([7]; 0.01 μg/mL): 5.1% | % Change of Biomarkers markers (with respect to Control) Serotonin ([7]; 0.05 μg/mL): 6.9% | % Change of Biomarkers markers (with respect to Control) Serotonin ([7]; 0.1 μg/mL): 7.9% | % Change of Biomarkers markers (with respect to Control) Serotonin ([7]; 1 μg/mL): 23.5% | modulation of α-Synuclein [8]: no significant modulation | brain TNF-alpha Mean ([9]; G4: 0.5 mg/kg i.v. qdx14): 121.7 pg/mL and 121.73 pg/mL | brain TNF-alpha Mean ([9]; G5: 0.25 mg/kg i.v. qdx14): 67.65 pg/mL | brain TNF-alpha Mean ([9]; G6: 0.125 mg/kg i.v. qdx14): 79.53 pg/mL

Source: patent US20240398899A1 (priority 2021, published 2024)
